From patent US20240400717A1 (NATIONAL CHENG KUNG UNIVERSITY, published 2024)

How the values were obtained:
mouse rCHI3L1 = target: T1, mouse rCHI3L1 (mouse, UniProt Q61362 30-389, limits assumed); experiment: phage ELISA (3rd round single clone screening): coated protein, rescued phage supernatant, anti-M13-HRP, OD450
T1 construct: also called mouse CHI3L1; murine CHI3L1

recombinant human CHI3L1 = target: T2, recombinant human CHI3L1 (human, UniProt P36222 22-383); experiment: as above
T2 construct: also called rCHI3L1; human rCHI3L1
T2 sequence (P36222 22-383 limits assumed): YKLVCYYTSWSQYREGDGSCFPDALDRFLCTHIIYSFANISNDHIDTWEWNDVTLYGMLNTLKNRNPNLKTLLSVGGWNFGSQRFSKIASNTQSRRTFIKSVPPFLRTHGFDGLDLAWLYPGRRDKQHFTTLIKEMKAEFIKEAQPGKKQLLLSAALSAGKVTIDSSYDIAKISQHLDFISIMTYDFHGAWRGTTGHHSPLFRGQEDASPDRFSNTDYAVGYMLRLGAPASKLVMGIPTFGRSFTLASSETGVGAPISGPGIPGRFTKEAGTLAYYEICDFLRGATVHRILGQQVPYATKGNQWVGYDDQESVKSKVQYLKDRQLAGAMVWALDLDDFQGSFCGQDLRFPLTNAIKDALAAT

T1 sequence (Q61362 30-389 limits assumed): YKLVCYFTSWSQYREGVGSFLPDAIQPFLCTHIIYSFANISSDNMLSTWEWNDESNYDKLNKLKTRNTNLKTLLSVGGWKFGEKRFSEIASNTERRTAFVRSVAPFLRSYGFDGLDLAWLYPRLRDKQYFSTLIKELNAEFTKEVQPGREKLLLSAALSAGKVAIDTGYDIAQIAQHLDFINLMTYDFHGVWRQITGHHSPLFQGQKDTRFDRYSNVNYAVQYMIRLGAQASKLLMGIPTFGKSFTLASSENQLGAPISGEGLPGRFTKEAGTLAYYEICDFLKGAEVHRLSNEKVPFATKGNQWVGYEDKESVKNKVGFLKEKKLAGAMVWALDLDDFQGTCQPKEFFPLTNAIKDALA

binding result (mouse rCHI3L1): no binding
binding result (recombinant human CHI3L1): binds
B1: anti-CHI3L1 clone 293R3-5 (antibody, human IgG1, V domains shown)
VH: EVQLVQSGAGVKKPGATVKISCKVSGYTFTDYYMHWVQQAPGKGLEWMGLVDPEDGETIYAEKFQGRVTITADTSTDTAYMELSSLRSEDTAVYYCATASPREEMPYYFDYWGQGTLVTVSS
VL: SYELTQPPSVSVSPGQTASITCSGDILADQYASWYQQKPGQSPVLVIYHDTKRPSGVPERFSGSTSGNTATLTISGTQAMDEAAYYCQAWDINTAWVFGGGTQLTVLG
notes: also called #hu 293R3-5
